Laboratory results: patent publication US20140087995A1 (published 2014)
Changes are numbered by the printed parent chain. Read-outs that look alike come from different tables or passages of the source. Values belong to the binder of their own block, whether it stands above or below them. Numbered stars: 1 amine (or outer) side, 2 acyl side, 3 side chain; on linkers, the order of the positions; unused ones are H or OH. Bridge positions count the residues as written; N and C are the ends. Side chains are listed from the residue outwards. Ends that are not written are not given here. * marks the point of attachment. C20 diacid = O=C(O)CCCCCCCCCCCCCCCCCCC(=O)*; γGlu = O=C(O)[C@H](CCC(=O)[*:2])N[*:1]

Key:
Assay in all cases: cell-based or functional assay
[1] = biological target: T1, human amylin 3(a) receptor (human calcitonin receptor co-expressed with RAMP-3) (human, UniProt P30988 25-474; O60896 24-148, limits assumed)
T1 sequence (looked up) 1: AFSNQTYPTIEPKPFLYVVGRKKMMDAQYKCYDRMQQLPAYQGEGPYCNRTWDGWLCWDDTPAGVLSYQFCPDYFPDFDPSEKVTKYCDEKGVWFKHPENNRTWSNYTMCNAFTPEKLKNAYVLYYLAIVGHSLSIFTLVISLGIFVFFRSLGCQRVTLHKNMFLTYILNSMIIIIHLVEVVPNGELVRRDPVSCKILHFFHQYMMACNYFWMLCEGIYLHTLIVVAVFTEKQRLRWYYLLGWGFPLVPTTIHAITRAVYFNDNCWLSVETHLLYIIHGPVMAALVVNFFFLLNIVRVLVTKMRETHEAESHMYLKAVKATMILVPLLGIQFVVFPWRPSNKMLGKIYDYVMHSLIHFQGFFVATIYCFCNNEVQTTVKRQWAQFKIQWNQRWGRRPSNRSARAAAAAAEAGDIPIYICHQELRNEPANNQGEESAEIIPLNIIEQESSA
T1 sequence (looked up) 2: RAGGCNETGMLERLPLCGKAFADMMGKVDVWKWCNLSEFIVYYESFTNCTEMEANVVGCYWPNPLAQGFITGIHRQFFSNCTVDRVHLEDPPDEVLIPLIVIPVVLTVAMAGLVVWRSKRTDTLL

[2] = biological target: T2, human calcitonin receptor (human, UniProt P30988 25-474)
T2 sequence (looked up): T1 sequence (looked up) 1

[3] = biological target: T3, human calcitonin receptor (human, UniProt P30988 25-474); remark: listed apart in the source
T3 sequence (looked up): T1 sequence (looked up) 1

hAmylin-R funct. EC50 [1]: 0.085 nM
Ratio hCT/hAmylin funct. [2]: 28
hCTR funct. EC50 [2]: 2.38 nM
B1: N^ε1-[(4S)-4-carboxy-4-[[(4S)-4-carboxy-4-(19-carboxynonadecanoylamino)butanoyl]amino]butanoyl]-[His14,Arg17,Pro21,Pro27]-h-amylin (peptide)
peptide: K([γGlu-γGlu-C20 diacid])CNTATCATQRLAHFLRHSSPNFGAIPSSTNVGSNTY-NH2
modifications: disulfide 2-7; N-terminus assumed
SMILES: CC[C@H](C)[C@H](NC(=O)[C@H](C)NC(=O)CNC(=O)[C@H](Cc1ccccc1)NC(=O)[C@H](CC(N)=O)NC(=O)[C@@H]1CCCN1C(=O)[C@H](CO)NC(=O)[C@H](CO)NC(=O)[C@H](Cc1c[nH]cn1)NC(=O)[C@H](CCCNC(=N)N)NC(=O)[C@H](CC(C)C)NC(=O)[C@H](Cc1ccccc1)NC(=O)[C@H](Cc1c[nH]cn1)NC(=O)[C@H](C)NC(=O)[C@H](CC(C)C)NC(=O)[C@H](CCCNC(=N)N)NC(=O)[C@H](CCC(N)=O)NC(=O)[C@@H](NC(=O)[C@H](C)NC(=O)[C@@H]1CSSC[C@H](NC(=O)[C@@H](N)CCCCNC(=O)CC[C@H](NC(=O)CC[C@H](NC(=O)CCCCCCCCCCCCCCCCCCC(=O)O)C(=O)O)C(=O)O)C(=O)N[C@@H](CC(N)=O)C(=O)N[C@@H]([C@@H](C)O)C(=O)N[C@@H](C)C(=O)N[C@@H]([C@@H](C)O)C(=O)N1)[C@@H](C)O)C(=O)N1CCC[C@H]1C(=O)N[C@@H](CO)C(=O)N[C@@H](CO)C(=O)N[C@H](C(=O)N[C@@H](CC(N)=O)C(=O)N[C@H](C(=O)NCC(=O)N[C@@H](CO)C(=O)N[C@@H](CC(N)=O)C(=O)N[C@H](C(=O)N[C@@H](Cc1ccc(O)cc1)C(N)=O)[C@@H](C)O)C(C)C)[C@@H](C)O
notes: also called compound 92

hCTR funct. EC50 [3]: 2.68 nM
B7: N^α1-[(4S)-4-carboxy-4-(19-carboxynonadecanoylamino)butanoyl]-[Arg17,Pro21,Pro27,His34]-h-amylin (peptide)
peptide: KCNTATCATQRLANFLRHSSPNFGAIPSSTNVGHNTY
modifications: N-terminal alpha-amino acylated with C20 diacid-gGlu; Cys2-Cys7 disulfide; C-terminal amide
notes: analogue of human amylin; also called compound 40

hCTR funct. EC50 [3]: 2.52 nM
B8: N^α1-[(4S)-4-carboxy-4-(19-carboxynonadecanoylamino)butanoyl]-[Arg17,Pro21,Pro27,Arg34]-h-amylin (peptide)
peptide: B7 peptide with H34R
modifications: N-terminal alpha-amino acylated with C20 diacid-gGlu; Cys2-Cys7 disulfide; C-terminal amide
notes: analogue of human amylin; also called compound 39

Second part, the binder before the results:

B2: N^-1-[(4S)-4-carboxy-4-(19-carboxynonadecanoylamino)butanoyl]-Gly[Arg1,His14,Arg17,Pro21,Pro27,His34]-h-amylin (peptide)
peptide: {C20 diacid-γGlu}-GRCNTATCATQRLAHFLRHSSPNFGAIPSSTNVGHNTY-NH2
modifications: disulfide 3-8
SMILES: CC[C@H](C)[C@H](NC(=O)[C@H](C)NC(=O)CNC(=O)[C@H](Cc1ccccc1)NC(=O)[C@H](CC(N)=O)NC(=O)[C@@H]1CCCN1C(=O)[C@H](CO)NC(=O)[C@H](CO)NC(=O)[C@H](Cc1c[nH]cn1)NC(=O)[C@H](CCCNC(=N)N)NC(=O)[C@H](CC(C)C)NC(=O)[C@H](Cc1ccccc1)NC(=O)[C@H](Cc1c[nH]cn1)NC(=O)[C@H](C)NC(=O)[C@H](CC(C)C)NC(=O)[C@H](CCCNC(=N)N)NC(=O)[C@H](CCC(N)=O)NC(=O)[C@@H](NC(=O)[C@H](C)NC(=O)[C@@H]1CSSC[C@H](NC(=O)[C@H](CCCNC(=N)N)NC(=O)CNC(=O)CC[C@H](NC(=O)CCCCCCCCCCCCCCCCCCC(=O)O)C(=O)O)C(=O)N[C@@H](CC(N)=O)C(=O)N[C@@H]([C@@H](C)O)C(=O)N[C@@H](C)C(=O)N[C@@H]([C@@H](C)O)C(=O)N1)[C@@H](C)O)C(=O)N1CCC[C@H]1C(=O)N[C@@H](CO)C(=O)N[C@@H](CO)C(=O)N[C@H](C(=O)N[C@@H](CC(N)=O)C(=O)N[C@H](C(=O)NCC(=O)N[C@@H](Cc1c[nH]cn1)C(=O)N[C@@H](CC(N)=O)C(=O)N[C@H](C(=O)N[C@@H](Cc1ccc(O)cc1)C(N)=O)[C@@H](C)O)C(C)C)[C@@H](C)O
notes: also called compound 100
hAmylin-R funct. EC50 [1]: 0.253 nM
Ratio hCT/hAmylin funct. [2]: 6.8
hCTR funct. EC50 [2]: 1.73 nM

Binder: {C20 diacid-γGlu}-GRCNTATCATQRLAAFLRHSSPNFGAIPSSTNVGPNTY-NH2 (disulfide 3-8)
hAmylin-R funct. EC50 [1]: 0.07 nM
Ratio hCT/hAmylin funct. [2]: 2.1
hCTR funct. EC50 [2]: 0.148 nM

B3: N^-1-[(4S)-4-carboxy-4-(19-carboxynonadecanoylamino)butanoyl]-Gly[Arg1,Ala14,Arg17,Pro21,Pro27,His34]-h-amylin (peptide)
peptide: {C20 diacid-γGlu}-GRCNTATCATQRLAAFLRHSSPNFGAIPSSTNVGHNTY-NH2
modifications: disulfide 3-8
SMILES: CC[C@H](C)[C@H](NC(=O)[C@H](C)NC(=O)CNC(=O)[C@H](Cc1ccccc1)NC(=O)[C@H](CC(N)=O)NC(=O)[C@@H]1CCCN1C(=O)[C@H](CO)NC(=O)[C@H](CO)NC(=O)[C@H](Cc1c[nH]cn1)NC(=O)[C@H](CCCNC(=N)N)NC(=O)[C@H](CC(C)C)NC(=O)[C@H](Cc1ccccc1)NC(=O)[C@H](C)NC(=O)[C@H](C)NC(=O)[C@H](CC(C)C)NC(=O)[C@H](CCCNC(=N)N)NC(=O)[C@H](CCC(N)=O)NC(=O)[C@@H](NC(=O)[C@H](C)NC(=O)[C@@H]1CSSC[C@H](NC(=O)[C@H](CCCNC(=N)N)NC(=O)CNC(=O)CC[C@H](NC(=O)CCCCCCCCCCCCCCCCCCC(=O)O)C(=O)O)C(=O)N[C@@H](CC(N)=O)C(=O)N[C@@H]([C@@H](C)O)C(=O)N[C@@H](C)C(=O)N[C@@H]([C@@H](C)O)C(=O)N1)[C@@H](C)O)C(=O)N1CCC[C@H]1C(=O)N[C@@H](CO)C(=O)N[C@@H](CO)C(=O)N[C@H](C(=O)N[C@@H](CC(N)=O)C(=O)N[C@H](C(=O)NCC(=O)N[C@@H](Cc1c[nH]cn1)C(=O)N[C@@H](CC(N)=O)C(=O)N[C@H](C(=O)N[C@@H](Cc1ccc(O)cc1)C(N)=O)[C@@H](C)O)C(C)C)[C@@H](C)O
hAmylin-R funct. EC50 [1]: 0.109 nM
Ratio hCT/hAmylin funct. [2]: 4.9
hCTR funct. EC50 [2]: 0.537 nM

B4: N{-1}-[(4S)-4-carboxy-4-(19-carboxynonadecanoylamino)butanoyl]-Gly[Arg1,His14,Arg17,Pro21,Pro27]-h-amylin (peptide)
peptide: {C20 diacid-γGlu}-GRCNTATCATQRLAHFLRHSSPNFGAIPSSTNVGSNTY-NH2
modifications: disulfide 3-8
SMILES: CC[C@H](C)[C@H](NC(=O)[C@H](C)NC(=O)CNC(=O)[C@H](Cc1ccccc1)NC(=O)[C@H](CC(N)=O)NC(=O)[C@@H]1CCCN1C(=O)[C@H](CO)NC(=O)[C@H](CO)NC(=O)[C@H](Cc1c[nH]cn1)NC(=O)[C@H](CCCNC(=N)N)NC(=O)[C@H](CC(C)C)NC(=O)[C@H](Cc1ccccc1)NC(=O)[C@H](Cc1c[nH]cn1)NC(=O)[C@H](C)NC(=O)[C@H](CC(C)C)NC(=O)[C@H](CCCNC(=N)N)NC(=O)[C@H](CCC(N)=O)NC(=O)[C@@H](NC(=O)[C@H](C)NC(=O)[C@@H]1CSSC[C@H](NC(=O)[C@H](CCCNC(=N)N)NC(=O)CNC(=O)CC[C@H](NC(=O)CCCCCCCCCCCCCCCCCCC(=O)O)C(=O)O)C(=O)N[C@@H](CC(N)=O)C(=O)N[C@@H]([C@@H](C)O)C(=O)N[C@@H](C)C(=O)N[C@@H]([C@@H](C)O)C(=O)N1)[C@@H](C)O)C(=O)N1CCC[C@H]1C(=O)N[C@@H](CO)C(=O)N[C@@H](CO)C(=O)N[C@H](C(=O)N[C@@H](CC(N)=O)C(=O)N[C@H](C(=O)NCC(=O)N[C@@H](CO)C(=O)N[C@@H](CC(N)=O)C(=O)N[C@H](C(=O)N[C@@H](Cc1ccc(O)cc1)C(N)=O)[C@@H](C)O)C(C)C)[C@@H](C)O
notes: also called compound 99
hAmylin-R funct. EC50 [1]: 0.082 nM
Ratio hCT/hAmylin funct. [2]: 10
hCTR funct. EC50 [2]: 0.818 nM

B5: N^-1-[(4S)-4-carboxy-4-(19-carboxynonadecanoylamino)butanoyl]-Gly[Arg1,His14,Arg17,Pro21,Pro27,Pro34]-h-amylin (peptide)
peptide: {C20 diacid-γGlu}-GRCNTATCATQRLAHFLRHSSPNFGAIPSSTNVGPNTY-NH2
modifications: disulfide 3-8
SMILES: CC[C@H](C)[C@H](NC(=O)[C@H](C)NC(=O)CNC(=O)[C@H](Cc1ccccc1)NC(=O)[C@H](CC(N)=O)NC(=O)[C@@H]1CCCN1C(=O)[C@H](CO)NC(=O)[C@H](CO)NC(=O)[C@H](Cc1c[nH]cn1)NC(=O)[C@H](CCCNC(=N)N)NC(=O)[C@H](CC(C)C)NC(=O)[C@H](Cc1ccccc1)NC(=O)[C@H](Cc1c[nH]cn1)NC(=O)[C@H](C)NC(=O)[C@H](CC(C)C)NC(=O)[C@H](CCCNC(=N)N)NC(=O)[C@H](CCC(N)=O)NC(=O)[C@@H](NC(=O)[C@H](C)NC(=O)[C@@H]1CSSC[C@H](NC(=O)[C@H](CCCNC(=N)N)NC(=O)CNC(=O)CC[C@H](NC(=O)CCCCCCCCCCCCCCCCCCC(=O)O)C(=O)O)C(=O)N[C@@H](CC(N)=O)C(=O)N[C@@H]([C@@H](C)O)C(=O)N[C@@H](C)C(=O)N[C@@H]([C@@H](C)O)C(=O)N1)[C@@H](C)O)C(=O)N1CCC[C@H]1C(=O)N[C@@H](CO)C(=O)N[C@@H](CO)C(=O)N[C@H](C(=O)N[C@@H](CC(N)=O)C(=O)N[C@H](C(=O)NCC(=O)N1CCC[C@H]1C(=O)N[C@@H](CC(N)=O)C(=O)N[C@H](C(=O)N[C@@H](Cc1ccc(O)cc1)C(N)=O)[C@@H](C)O)C(C)C)[C@@H](C)O
hAmylin-R funct. EC50 [1]: 0.062 nM
Ratio hCT/hAmylin funct. [2]: 2.9
hCTR funct. EC50 [2]: 0.179 nM

B6: N^α1-[2-[2-[2-[[2-[2-[2-[[(4S)-4-carboxy-4-(19-carboxynonadecanoylamino)butanoyl]amino]ethoxy]ethoxy]acetyl]amino]ethoxy]ethoxy]acetyl]-[Arg17,Pro21,Pro27]-h-am … (peptide)
peptide: B7 peptide with H34S
modifications: N-terminal alpha-amino acylated with C20 diacid-gGlu-2xOEG; Cys2-Cys7 disulfide; C-terminal amide
notes: analogue of human amylin; also called compound 24
hCTR funct. EC50 [3]: 10 nM

B9: N^α1-[2-[2-[2-[[2-[2-[2-[[(4S)-4-carboxy-4-(19-carboxynonadecanoylamino)butanoyl]amino]ethoxy]ethoxy]acetyl]amino]ethoxy]ethoxy]acetyl]-[Glu14,Arg17,Pro21,Pro27 … (peptide)
peptide: B7 peptide with N14E, H34S
modifications: N-terminal alpha-amino acylated with C20 diacid-gGlu-2xOEG; Cys2-Cys7 disulfide; C-terminal amide
notes: analogue of human amylin; also called compound 19
hCTR funct. EC50 [3]: 5.32 nM
